Substitutions are numbered along the chain they refer to.
B1: SR16983-R3-P4-H10 (VHH)
VHH: QVQLVESGGGLVQAGGSLRLSCAASGLTSSTYVMAWFRQAPGKEREFVSVIDSRGDTTYANSVKGRFTTSRDFGKNTVYLQMNSLQPEDTALYYCAARASPAYVARLYAYWGRGTQVTVSS
B2: SR16983-R2-P2-A08 (VHH)
VHH: B1 VHH with L11V, N61K, T68S, T69I, F73N, T77A, P101A, A102S, L107M
B3: SR16983-R3P2G08 (VHH)
VHH: QLQLVESGGGLVQAGGSMRLSCTASGSTVRVTAGGWYRQAPGNERELVADIDNGGSTTYADSVKGRFTISRDNAKNAVDLQMNSLKPEDTAVYRCFVIAIPDSAPRPRAYWGQGTQVTVSS
B4: SR16983-R3P2H01 (VHH)
VHH: B3 VHH with E6Q, M18L, A40T, Q116E
B5: SR16983-R2-P2-G11 (VHH)
VHH: QVQLVESGGGLVQAGGSLRLSCAASGTTFSFNYMGWYRQAPGNQRDLVARISSGGITNYADSVKGRFTISGDNAKNVVYLQMNSLKPEDTARYYCFYNGHLNKWGQGTQVTVSS
B6: SR16983-R3-P2-B02 (VHH)
VHH: B5 VHH with V2L, N32V, G54D, I56S, V77I
B7: SR16983-R3-P5-C03 (VHH)
VHH: B5 VHH with V2L, N32V, D46E, I51L, G54D, I56S, T68L, V77T
B8: SR16983-R2-P5-H07 (VHH)
VHH: B5 VHH with N32V, D46E, G54D, I56S, A60S, T68L, D72A, V77T
B9: SR16983-R3-P2-G05 (VHH)
VHH: B5 VHH with V2L, A14T, N32V, G54D, I56S, D72G, V77T
B10: SR16983-R3-P2-E09 (VHH)
VHH: B5 VHH with V2L, I56S, G71A, V77T, Y94T, Y97W, H100Y, L101T
B11: SR16983-R3-P4-F06 (VHH)
VHH: B5 VHH with V2L, A23E, G26R, V77T
B12: SR16983-R2-P2-E10 (VHH)
VHH: QLQLVESGGGLVQPGGSLRLSCVLSGSTFGRNVITWYRQPPGKQREFIAMITTSGSTRYADSVKGRFTMSRDTAKNTAFLQMSNLKLEDTAVYYCWTAIAGQGEYWGQGTQVTVSS
B13: SR16983-R4-P1-C07 (VHH)
VHH: B12 VHH with Q1E, L2V, L11V, P14A, S27N, R31D, T53K, N84S, L87V
B14: SR16983-R2-P3-F07 (VHH)
VHH: QLQLVESGGGLVQAGGSLRLSCAASGTTFDMNSMGWYRQAPGFKRDLVATISIGGDTNYTDSVKGRFTISRDNAKNTVYMQMNSLKPEDTAVYYCNAERIWPNRRSFWGQGTQVTVSS
B15: SR16983-R3-P5-D01 (VHH)
VHH: B14 VHH with M34I, F43K, K44Q, D46E, D56S, T60A, D72G, S106T
B16: SR16983-R2-P4-G06 (VHH)
VHH: EVQLVESGGGLVQAGGSLRLSCTTSGSTFSITAGGWYRQAPGKQRELVADIANDGSTTYADSVKGRFTISRDNAKNTVELQMSSLKLEDTAVYLCFVVGISDSTPRPRAYWGQGTQVTVSS
B17: SR16983-R3-P3-G05 (VHH)
VHH: QLQLVESGGGLVQAGGSLRLSCAASGFTLDDYAIGWFRQAPGKEREGVSCIASSDGSTYYADSVKGRFTISTDNAKNTVYLQMNSLKPEDTAVYYCARGGLLLPKPELFDSWGQGTQVTVSS
B18: SR16983-R3-P3-A12 (VHH)
VHH: B17 VHH with A14P, A24V, C50S, S53T, T72S, K105R, F109Y, D110E, S111Y
B19: SR16983-R3-P4-A05 (VHH)
VHH: B17 VHH with S53T, T72S, N74A, N84D, S111G, S122T
B20: SR16983-R3-P3-C06 (VHH)
VHH: QLQLVESGGGLVQPGGSLRLSCAASGFTFSTKWMYWVRQGPGKGLEWVSTIDASGGSTYYADSVKGRFTISRDNTEKKVYLQMNSLESADTAVYYCARSAGGQFRGRGTQVTVSS
B21: SR16983-R3P2F4 (VHH)
VHH: QLQLVESGGGLVQAGGSLRLSCAASGRIFGTYVMGWFRQAPGKEREFVAAVSRSTGSTYADSVKGRFTISRDDAKNMLYLQMNNLRPEDTAIYYCATRASINYNYANWPYWGQGTQVTVSS
B22: SR16983-R2-P4-H08 (VHH)
VHH: QLQLVESGGGLMQAGGSLRLSCAASGTTSSLNLMGWYRQAPGKKRESVAHMTSDGRTDYTDSVKGRFTISRDNSKNTVYLQMNNLKPEDTAVYYCYANPFLGSWSNYWGQGTQVTVSS
B23: SR16983-R4-P1-A12 (VHH)
VHH: B22 VHH with M12V, R56D, T60V, L85V
B24: SR16983-R2-P4-F09 (VHH)
VHH: QVQLVESGGGLVQAGGSLRLSCAASGFTFDDYAIGWFRQAPGKEREGIACRSTDGSTYYADSVEGRFTISSDNAKRTVYLQMNSLKPGDTAVYYCAADLMGVHRRCSGYLNLEYGMDYWAKGTLVTVSS
B25: SR16983-R3P2H05 (VHH)
VHH: QLQLVESGGGLVQPGGSLRLACAASGFSFDDYAIGWFRQAPGKEREGVSCITSDGSTYYADSVKGRFTISSDYAKNTVHLQMNSLKPEDTAVYYCARGGLLLPKPELFDDWGQGTQVTVSS
B26: SR16983-R3P2D09 (VHH)
VHH: QVQLVESGGGLVQAGGSLRLSCAASGRTVGSYAMGWFRQAPGKEREFLAAFSRSTGNTVYADSVKGRFTISRDDAKNTLYLQMNSLKPEDTAVYYCAARASINYNYANWPYWGQGTQVTVSS
B27: SR16983-R3-P3-G03 (VHH)
VHH: B26 VHH with A33V, F47L
B28: SR16983-R3-P3-F04 (VHH)
VHH: B26 VHH with V2L, F51S
B29: SR16983-R3-P4-A07 (VHH)
VHH: QVQLVESGGGLVQAGGSLRLSCAASGRTFVGSYVMGWFRQAPGKEREFVAASSRSTGNTVYLDSVKGRFTVSRDDAKNTLYLQMNSLKPEDTAVYYCATRASINYNYAAWPYWGQGTQVTVSS
B30: SR16983-R3-P2-D12 (VHH)
VHH: QLQLVESGGGLVQAGGSLRLSCAASGSTFNFNIMGWYRQVPGKQRELVAVINSGGSADYTEDVKGRFTISRDNAKSIMYLQMNSLKPEDTAVYYCNAKKVEPTLFTTTYWGQGTQVTVSS
B31: SR16983-R3P2A07 (VHH)
VHH: QVQLVESGGRLVQAGGSLRLSCAASGRTSSNYAMGWFRQAPGKERRFVAGISRDGADTSYADSVKGRFTILRDRSKNTADLQMNSLKPEDTAIYYCAAARGIYGEISRYTGDYESWGQGTQVTVSS
B32: SR16983-R3-P2-B05 (VHH)
VHH: B22 VHH with M12V, T60V, Y94I
notes: The cell prints 55 (a CDR1 entry); to be checked
B33: SR16983-R3-P5-G12 (VHH)
VHH: B26 VHH with V2L, A23V, M34V, G35A, F47L, F51S, S71A
B34: SR16983-R2-P3-E06 (VHH)
VHH: B26 VHH with V2L, A23V, M34V, G35A, F47L, F51S, S71A

target: T1, human protein C (PC) zymogen (human, UniProt P04070 43-197; P04070 200-461); assay: ELISA screen, PC-coated wells, OD450, n=2 [Continued]
T1 construct: Bought
T1 sequence (P04070 43-197, chain 1 of 2): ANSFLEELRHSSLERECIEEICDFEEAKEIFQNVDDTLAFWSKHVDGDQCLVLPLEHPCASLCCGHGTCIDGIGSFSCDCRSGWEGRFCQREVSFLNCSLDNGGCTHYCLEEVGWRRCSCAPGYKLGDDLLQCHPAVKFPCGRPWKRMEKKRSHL
T1 sequence (P04070 200-461, chain 2 of 2): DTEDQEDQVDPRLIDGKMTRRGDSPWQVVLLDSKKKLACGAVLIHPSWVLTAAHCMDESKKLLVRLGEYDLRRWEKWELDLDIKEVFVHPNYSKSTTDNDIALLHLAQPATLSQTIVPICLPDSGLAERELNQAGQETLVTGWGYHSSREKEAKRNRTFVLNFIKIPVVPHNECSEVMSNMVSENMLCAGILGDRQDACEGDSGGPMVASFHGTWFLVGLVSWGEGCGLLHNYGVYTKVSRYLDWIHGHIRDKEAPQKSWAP

**Q.** Does B1 bind?
**A.** no binding

**Q.** Does B2 bind?
**A.** no binding

**Q.** Does B3 bind?
**A.** no binding

**Q.** Does B4 bind?
**A.** no binding

**Q.** Does B5 bind?
**A.** no binding

**Q.** Does B6 bind?
**A.** no binding

**Q.** Does B7 bind?
**A.** no binding

**Q.** Does B8 bind?
**A.** no binding

**Q.** Does B9 bind?
**A.** no binding

**Q.** Does B10 bind?
**A.** no binding

**Q.** Does B11 bind?
**A.** no binding

**Q.** Does B12 bind?
**A.** no binding

**Q.** Does B13 bind?
**A.** no binding

**Q.** Does B14 bind?
**A.** no binding

**Q.** Does B15 bind?
**A.** no binding

**Q.** Does B16 bind?
**A.** no binding

**Q.** Does B17 bind?
**A.** no binding

**Q.** Does B18 bind?
**A.** no binding

**Q.** Does B19 bind?
**A.** no binding

**Q.** Does B20 bind?
**A.** no binding

**Q.** Does B21 bind?
**A.** no binding

**Q.** Does B22 bind?
**A.** no binding

**Q.** Does B23 bind?
**A.** no binding

**Q.** Does B24 bind?
**A.** no binding

**Q.** Does B25 bind?
**A.** no binding

**Q.** Does B26 bind?
**A.** no binding

**Q.** Does B27 bind?
**A.** no binding

**Q.** Does B28 bind?
**A.** no binding

**Q.** Does B29 bind?
**A.** no binding

**Q.** Does B30 bind?
**A.** no binding

**Q.** Does B31 bind?
**A.** no binding

target: T2, human APC-PPACK (active site-blocked APC) (human, UniProt P04070 43-461, active site bound by the tripeptide inhibitor Phe-Pro-Arg-chloromethylketone (PPACK)); assay: ELISA
T2 construct: Bought (Haematologic Technologies)
T2 sequence (P04070 other isoform, or with tags, fused parts or gaps): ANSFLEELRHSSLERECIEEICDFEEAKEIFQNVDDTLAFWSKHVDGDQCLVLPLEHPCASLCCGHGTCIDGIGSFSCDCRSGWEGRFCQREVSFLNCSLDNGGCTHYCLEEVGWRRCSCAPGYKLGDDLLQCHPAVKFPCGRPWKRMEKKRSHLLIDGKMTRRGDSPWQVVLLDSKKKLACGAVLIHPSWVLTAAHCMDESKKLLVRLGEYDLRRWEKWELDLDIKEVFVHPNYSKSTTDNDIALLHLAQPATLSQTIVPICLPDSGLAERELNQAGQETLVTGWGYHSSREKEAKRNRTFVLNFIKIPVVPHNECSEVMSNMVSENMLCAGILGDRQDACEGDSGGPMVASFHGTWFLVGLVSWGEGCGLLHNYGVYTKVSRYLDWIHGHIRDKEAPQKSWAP

**Q.** Does B1 bind?
**A.** binds

**Q.** Does B2 bind?
**A.** binds

**Q.** Does B3 bind?
**A.** binds

**Q.** Does B5 bind?
**A.** binds

**Q.** Does B6 bind?
**A.** binds

**Q.** Does B7 bind?
**A.** binds

**Q.** Does B8 bind?
**A.** binds

**Q.** Does B9 bind?
**A.** binds

**Q.** Does B10 bind?
**A.** binds

**Q.** Does B11 bind?
**A.** binds

**Q.** Does B12 bind?
**A.** binds

**Q.** Does B13 bind?
**A.** binds

**Q.** Does B14 bind?
**A.** binds

**Q.** Does B15 bind?
**A.** binds

**Q.** Does B16 bind?
**A.** binds

**Q.** Does B17 bind?
**A.** binds

**Q.** Does B18 bind?
**A.** binds

**Q.** Does B19 bind?
**A.** binds

**Q.** Does B20 bind?
**A.** binds

**Q.** Does B21 bind?
**A.** binds

**Q.** Does B22 bind?
**A.** binds

**Q.** Does B23 bind?
**A.** binds

**Q.** Does B24 bind?
**A.** binds

**Q.** Does B25 bind?
**A.** binds

**Q.** Does B26 bind?
**A.** binds

**Q.** Does B27 bind?
**A.** binds

**Q.** Does B28 bind?
**A.** binds

**Q.** Does B29 bind?
**A.** binds

**Q.** Does B30 bind?
**A.** binds

**Q.** Does B31 bind?
**A.** binds

target: T1, human protein C (PC) zymogen; assay: ELISA screen, PC-coated wells, OD450, n=2 [Continued]; remark: another data set of the same source

**Q.** Does B32 bind?
**A.** no binding

**Q.** Does B33 bind?
**A.** no binding

**Q.** Does B34 bind?
**A.** no binding
